# Test results reported in patent US20220402983A1 (Janssen / Centocor, published 2022).
# Bridges are numbered along the chain shown (N, C = ends). [ ]: non-standard residue; d: D form. The star is where a group is joined. Trp(7-Ph) = N[C@@H](Cc1c[nH]c2c(-c3ccccc3)cccc12)C(=O)O; Trp(7-Me) = Cc1cccc2c(C[C@H](N)C(=O)O)c[nH]c12; 2Nal = N[C@@H](Cc1ccc2ccccc2c1)C(=O)O; d(αMeF) = C[C@@](N)(Cc1ccccc1)C(=O)O; AEF = NCCOc1ccc(C[C@H](N)C(=O)O)cc1; αMeF = C[C@](N)(Cc1ccccc1)C(=O)O; Pen = CC(C)(S)[C@H](N)C(=O)O; αMeK = C[C@](N)(CCCCN)C(=O)O; 3Quin = not defined here; Isobutyryl = CC(C)C(=O)*; Thp = NC1(C(=O)O)CCOCC1; Abu = CC[C@H](N)C(=O)O; Aib = CC(C)(N)C(=O)O; Tfa = O=C(C(F)(F)F)*
# T1: human IL-23R (interleukin-23 receptor) (human, UniProt Q5VWK5 24-629)
# T1 sequence (looked up): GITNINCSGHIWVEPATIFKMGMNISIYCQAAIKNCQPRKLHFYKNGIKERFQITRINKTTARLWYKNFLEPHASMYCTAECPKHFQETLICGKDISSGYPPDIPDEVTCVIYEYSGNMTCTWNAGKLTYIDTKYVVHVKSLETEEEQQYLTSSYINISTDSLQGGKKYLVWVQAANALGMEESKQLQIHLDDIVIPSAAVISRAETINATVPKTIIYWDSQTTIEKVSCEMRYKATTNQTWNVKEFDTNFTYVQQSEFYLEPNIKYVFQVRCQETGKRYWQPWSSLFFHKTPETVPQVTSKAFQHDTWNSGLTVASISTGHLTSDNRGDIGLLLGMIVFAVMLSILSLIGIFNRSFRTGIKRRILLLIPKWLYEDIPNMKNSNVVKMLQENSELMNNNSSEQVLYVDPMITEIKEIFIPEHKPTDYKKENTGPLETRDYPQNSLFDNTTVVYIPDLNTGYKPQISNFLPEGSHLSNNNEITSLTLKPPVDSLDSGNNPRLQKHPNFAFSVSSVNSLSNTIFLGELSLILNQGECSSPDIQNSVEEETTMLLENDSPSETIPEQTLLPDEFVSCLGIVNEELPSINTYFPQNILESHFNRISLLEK
# B1: Compound No. 60 (peptide)
# peptide: Ac-[dR][Pen]QTWQ[Pen][AEF][2Nal][Thp]K(Tfa)NF-NH2
# modifications: disulfide 2-7
# SMILES: CC(=O)N[C@H](CCCNC(=N)N)C(=O)N[C@@H]1C(=O)N[C@@H](CCC(N)=O)C(=O)N[C@@H]([C@@H](C)O)C(=O)N[C@@H](Cc2c[nH]c3ccccc23)C(=O)N[C@@H](CCC(N)=O)C(=O)N[C@H](C(=O)N[C@@H](Cc2ccc(OCCN)cc2)C(=O)N[C@@H](Cc2ccc3ccccc3c2)C(=O)NC2(C(=O)N[C@@H](CCCCNC(=O)C(F)(F)F)C(=O)N[C@@H](CC(N)=O)C(=O)N[C@@H](Cc3ccccc3)C(N)=O)CCOCC2)C(C)(C)SSC1(C)C
# B2: Compound No. 61 (peptide)
# peptide: Ac-[dR][Pen]QTWQ[Pen][AEF][2Nal][Thp]K(Isobutyryl)NF-NH2
# modifications: disulfide 2-7
# SMILES: CC(=O)N[C@H](CCCNC(=N)N)C(=O)N[C@@H]1C(=O)N[C@@H](CCC(N)=O)C(=O)N[C@@H]([C@@H](C)O)C(=O)N[C@@H](Cc2c[nH]c3ccccc23)C(=O)N[C@@H](CCC(N)=O)C(=O)N[C@H](C(=O)N[C@@H](Cc2ccc(OCCN)cc2)C(=O)N[C@@H](Cc2ccc3ccccc3c2)C(=O)NC2(C(=O)N[C@@H](CCCCNC(=O)C(C)C)C(=O)N[C@@H](CC(N)=O)C(=O)N[C@@H](Cc3ccccc3)C(N)=O)CCOCC2)C(C)(C)SSC1(C)C
# B3: Compound No. 69 (peptide)
# peptide: Ac-[Pen]NT[Trp(7-Me)]K(Ac)[Pen][AEF][2Nal][αMeK]K(Ac)N[dL][d(αMeF)]-NH2
# modifications: disulfide 1-6
# SMILES: CC(=O)NCCCC[C@@H]1NC(=O)[C@H](Cc2c[nH]c3c(C)cccc23)NC(=O)[C@H]([C@@H](C)O)NC(=O)[C@H](CC(N)=O)NC(=O)[C@@H](NC(C)=O)C(C)(C)SSC(C)(C)[C@@H](C(=O)N[C@@H](Cc2ccc(OCCN)cc2)C(=O)N[C@@H](Cc2ccc3ccccc3c2)C(=O)N[C@@](C)(CCCCN)C(=O)N[C@@H](CCCCNC(C)=O)C(=O)N[C@@H](CC(N)=O)C(=O)N[C@H](CC(C)C)C(=O)N[C@](C)(Cc2ccccc2)C(N)=O)NC1=O
# B4: Compound No. 68 (peptide)
# peptide: Ac-[Pen]NT[Trp(7-Me)]K(Ac)[Pen][AEF][2Nal][αMeK]K(Ac)N[dL][αMeF]-NH2
# modifications: disulfide 1-6
# SMILES: CC(=O)NCCCC[C@@H]1NC(=O)[C@H](Cc2c[nH]c3c(C)cccc23)NC(=O)[C@H]([C@@H](C)O)NC(=O)[C@H](CC(N)=O)NC(=O)[C@@H](NC(C)=O)C(C)(C)SSC(C)(C)[C@@H](C(=O)N[C@@H](Cc2ccc(OCCN)cc2)C(=O)N[C@@H](Cc2ccc3ccccc3c2)C(=O)N[C@@](C)(CCCCN)C(=O)N[C@@H](CCCCNC(C)=O)C(=O)N[C@@H](CC(N)=O)C(=O)N[C@H](CC(C)C)C(=O)N[C@@](C)(Cc2ccccc2)C(N)=O)NC1=O
# Molecular target: T1, human IL-23R (interleukin-23 receptor)
# Test: cell-based or functional assay
PBMC pSTAT3 IC50 (nM),"pStat3 HTRF (nM), IC50, DB cells IL23R pSTAT3 cell assay [nM]",Binder
44,,B1
70,,B2
,2.75,B3
,1.02,Ac-[Pen]NT[Trp(7-Ph)]K(Ac)[Pen][AEF][3Quin][αMeK]K(Ac)N[Aib]-NH2 (disulfide 1-6; reading uncertain) [Compound No. 63]
,7,B4
,0.413,Ac-[Pen]NT[Trp(7-Ph)]K(Ac)[Pen][AEF][3Quin][Thp]EN[Aib]-NH2 (disulfide 1-6; reading uncertain) [Compound No. 62]
,5.52,Ac-[Abu]QT[Trp(7-Ph)]K(Ac)C[AEF][2Nal][αMeK]K(Ac)N[αMeF]-NH2 (thioether 1-6) [Compound No. 67]
